Assay results: IntAct's records for PubMed 29892012

B1: Coiled-coil alpha-helical rod protein 1 (Homo sapiens), Q8TD31 (parent)
chain: MFPPSGSTGLIPPSHFQARPLSTLPRMAPTWLSDIPLVQPPGHQDVSERRLDTQRPQVTMWERDVSSDRQEPGRRGRSWGLEGSQALSQQAEVIVRQLQELRRLEEEVRLLRETSLQQKMRLEAQAMELEALARAEKAGRAEAEGLRAALAGAEVVRKNLEEGSQRELEEVQRLHQEQLSSLTQAHEEALSSLTSKAEGLEKSLSSLETRRAGEAKELAEAQREAELLRKQLSKTQEDLEAQVTLVENLRKYVGEQVPSEVHSQTWELERQKLLETMQHLQEDRDSLHATAELLQVRVQSLTHILALQEEELTRKVQPSDSLEPEFTRKCQSLLNRWREKVFALMVQLKAQELEHSDSVKQLKGQVASLQEKVTSQSQEQAILQRSLQDKAAEVEVERMGAKGLQLELSRAQEARRRWQQQTASAEEQLRLVVNAVSSSQIWLETTMAKVEGAAAQLPSLNNRLSYAVRKVHTIRGLIARKLALAQLRQESCPLPPPVTDVSLELQQLREERNRLDAELQLSARLIQQEVGRAREQGEAERQQLSKVAQQLEQELQQTQESLASLGLQLEVARQGQQESTEEAASLRQELTQQQELYGQALQEKVAEVETRLREQLSDTERRLNEARREHAKAVVSLRQIQRRAAQEKERSQELRRLQEEARKEEGQRLARRLQELERDKNLMLATLQQEGLLSRYKQQRLLTVLPSLLDKKKSVVSSPRPPECSASAPVAAAVPTRESIKGSLSVLLDDLQDLSEAISKEEAVCQGDNLDRCSSSNPQMSS
partner: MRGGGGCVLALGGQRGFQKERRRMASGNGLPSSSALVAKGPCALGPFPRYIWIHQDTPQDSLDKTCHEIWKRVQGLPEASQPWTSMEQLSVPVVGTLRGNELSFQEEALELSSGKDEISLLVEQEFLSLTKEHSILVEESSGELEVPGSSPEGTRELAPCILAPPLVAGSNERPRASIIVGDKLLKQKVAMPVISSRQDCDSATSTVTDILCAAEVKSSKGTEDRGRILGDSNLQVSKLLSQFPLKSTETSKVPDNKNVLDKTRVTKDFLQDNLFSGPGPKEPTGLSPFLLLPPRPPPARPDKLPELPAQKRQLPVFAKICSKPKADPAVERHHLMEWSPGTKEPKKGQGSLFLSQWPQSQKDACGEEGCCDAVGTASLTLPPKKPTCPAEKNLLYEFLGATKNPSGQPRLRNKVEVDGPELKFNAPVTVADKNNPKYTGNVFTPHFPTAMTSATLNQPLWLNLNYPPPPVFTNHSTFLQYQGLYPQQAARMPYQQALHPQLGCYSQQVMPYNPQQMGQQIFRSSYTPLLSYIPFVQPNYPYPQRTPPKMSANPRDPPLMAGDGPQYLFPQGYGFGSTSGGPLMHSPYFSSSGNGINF
B2: Coiled-coil alpha-helical rod protein 1 (Homo sapiens), Q8TD31 (parent)
chain: B1 chain
partner: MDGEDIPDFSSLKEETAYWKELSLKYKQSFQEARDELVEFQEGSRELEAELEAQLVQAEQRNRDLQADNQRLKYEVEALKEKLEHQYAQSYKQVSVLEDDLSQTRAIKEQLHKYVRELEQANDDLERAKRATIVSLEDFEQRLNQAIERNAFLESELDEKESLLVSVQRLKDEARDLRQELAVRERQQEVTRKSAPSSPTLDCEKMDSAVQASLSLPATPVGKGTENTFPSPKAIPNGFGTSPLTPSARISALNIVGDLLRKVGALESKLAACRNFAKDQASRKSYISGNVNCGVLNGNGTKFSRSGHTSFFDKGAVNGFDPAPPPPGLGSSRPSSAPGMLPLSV
B3: Coiled-coil alpha-helical rod protein 1 (Homo sapiens), Q8TD31 (parent)
chain: B1 chain
partner: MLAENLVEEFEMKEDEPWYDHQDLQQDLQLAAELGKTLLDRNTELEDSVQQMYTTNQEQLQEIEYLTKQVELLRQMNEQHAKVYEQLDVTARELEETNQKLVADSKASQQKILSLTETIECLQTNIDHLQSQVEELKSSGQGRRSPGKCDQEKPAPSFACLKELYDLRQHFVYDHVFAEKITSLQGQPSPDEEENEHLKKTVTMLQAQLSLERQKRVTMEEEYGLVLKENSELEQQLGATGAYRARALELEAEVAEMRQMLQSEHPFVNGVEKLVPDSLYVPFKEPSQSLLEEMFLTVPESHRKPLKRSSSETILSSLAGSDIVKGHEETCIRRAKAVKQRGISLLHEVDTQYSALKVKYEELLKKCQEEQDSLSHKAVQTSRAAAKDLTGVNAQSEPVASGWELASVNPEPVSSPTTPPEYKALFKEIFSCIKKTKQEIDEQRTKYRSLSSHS
B4: Coiled-coil alpha-helical rod protein 1 (Homo sapiens), Q8TD31 (parent)
chain: B1 chain
partner: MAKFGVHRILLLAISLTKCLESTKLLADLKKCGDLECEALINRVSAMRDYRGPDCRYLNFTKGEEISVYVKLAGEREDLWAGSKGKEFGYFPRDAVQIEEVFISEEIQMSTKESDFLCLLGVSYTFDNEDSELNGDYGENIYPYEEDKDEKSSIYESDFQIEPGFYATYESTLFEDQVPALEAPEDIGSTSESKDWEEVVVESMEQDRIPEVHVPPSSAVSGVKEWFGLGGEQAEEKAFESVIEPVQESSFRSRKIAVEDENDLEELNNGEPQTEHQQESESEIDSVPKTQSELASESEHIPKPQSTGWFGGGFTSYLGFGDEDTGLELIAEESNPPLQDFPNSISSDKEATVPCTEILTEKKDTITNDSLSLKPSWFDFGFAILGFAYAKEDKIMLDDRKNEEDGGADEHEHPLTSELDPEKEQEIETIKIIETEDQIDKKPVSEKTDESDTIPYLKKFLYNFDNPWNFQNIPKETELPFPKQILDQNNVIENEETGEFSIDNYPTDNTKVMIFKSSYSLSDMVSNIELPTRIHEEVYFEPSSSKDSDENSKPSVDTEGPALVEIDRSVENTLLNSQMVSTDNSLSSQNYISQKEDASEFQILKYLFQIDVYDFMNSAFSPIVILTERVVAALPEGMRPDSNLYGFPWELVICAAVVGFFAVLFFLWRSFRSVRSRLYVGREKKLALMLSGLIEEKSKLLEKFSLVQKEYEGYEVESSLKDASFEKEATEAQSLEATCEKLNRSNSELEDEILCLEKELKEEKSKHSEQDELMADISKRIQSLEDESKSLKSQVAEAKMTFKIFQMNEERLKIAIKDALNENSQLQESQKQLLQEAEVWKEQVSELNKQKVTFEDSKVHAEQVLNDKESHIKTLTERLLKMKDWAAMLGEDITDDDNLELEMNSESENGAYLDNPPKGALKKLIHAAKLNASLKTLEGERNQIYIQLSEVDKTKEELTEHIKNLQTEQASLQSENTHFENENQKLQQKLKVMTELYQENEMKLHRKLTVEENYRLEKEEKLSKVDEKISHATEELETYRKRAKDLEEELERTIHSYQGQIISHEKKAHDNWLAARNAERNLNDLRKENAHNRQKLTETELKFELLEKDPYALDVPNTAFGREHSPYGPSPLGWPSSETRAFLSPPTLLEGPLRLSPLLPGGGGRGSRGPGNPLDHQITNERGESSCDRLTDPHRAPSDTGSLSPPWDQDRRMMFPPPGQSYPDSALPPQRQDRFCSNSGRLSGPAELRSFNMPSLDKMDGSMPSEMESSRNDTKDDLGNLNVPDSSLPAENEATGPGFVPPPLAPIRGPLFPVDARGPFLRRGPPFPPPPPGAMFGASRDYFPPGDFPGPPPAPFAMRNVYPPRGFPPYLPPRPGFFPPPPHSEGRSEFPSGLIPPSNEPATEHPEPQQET

Variants of: B1
Settings: with ca094_human C1orf94, Q6P1W5

Variant	effect of a mutation on the interaction
W337R	disrupting interaction strength

Variants of: B2
Settings: with ndel1_human NDEL1, Q9GZM8

Variant	effect of a mutation on the interaction
W337R	disrupting interaction strength

Variants of: B3
Settings: with cdr2_human CDR2, Q01850

Variant	effect of a mutation on the interaction
W337R	disrupting interaction strength

Variants of: B4
Settings: with mia2_human MIA2, Q96PC5

Variant	effect of a mutation on the interaction
W337R	disrupting interaction strength
